Experimental data published in paper PMC4919432, “The Dimeric Architecture of Checkpoint Kinases Mec1^ATR and Tel1^ATM Reveal a Common Structural Organization*” (The Journal of Biological Chemistry, 2016).

Biological target: T1, Mec1 (yeast (budding yeast), UniProt P38111 1-2368)
T1 construct: Mec1, yeast orthologue of mammalian ATR; 2,368 amino acids as the introduction says; The Mec1 subunit of m1, for the rows of two subunits; also called Mec1^ATR; yeast orthologue of ATR; source: yeast, overexpressed from pBL904 together with Ddc2, purified as the Mec1·Ddc2 complex (IgG-Sepharose, HRV 3C cleavage)
T1 sequence (P38111 whole entry): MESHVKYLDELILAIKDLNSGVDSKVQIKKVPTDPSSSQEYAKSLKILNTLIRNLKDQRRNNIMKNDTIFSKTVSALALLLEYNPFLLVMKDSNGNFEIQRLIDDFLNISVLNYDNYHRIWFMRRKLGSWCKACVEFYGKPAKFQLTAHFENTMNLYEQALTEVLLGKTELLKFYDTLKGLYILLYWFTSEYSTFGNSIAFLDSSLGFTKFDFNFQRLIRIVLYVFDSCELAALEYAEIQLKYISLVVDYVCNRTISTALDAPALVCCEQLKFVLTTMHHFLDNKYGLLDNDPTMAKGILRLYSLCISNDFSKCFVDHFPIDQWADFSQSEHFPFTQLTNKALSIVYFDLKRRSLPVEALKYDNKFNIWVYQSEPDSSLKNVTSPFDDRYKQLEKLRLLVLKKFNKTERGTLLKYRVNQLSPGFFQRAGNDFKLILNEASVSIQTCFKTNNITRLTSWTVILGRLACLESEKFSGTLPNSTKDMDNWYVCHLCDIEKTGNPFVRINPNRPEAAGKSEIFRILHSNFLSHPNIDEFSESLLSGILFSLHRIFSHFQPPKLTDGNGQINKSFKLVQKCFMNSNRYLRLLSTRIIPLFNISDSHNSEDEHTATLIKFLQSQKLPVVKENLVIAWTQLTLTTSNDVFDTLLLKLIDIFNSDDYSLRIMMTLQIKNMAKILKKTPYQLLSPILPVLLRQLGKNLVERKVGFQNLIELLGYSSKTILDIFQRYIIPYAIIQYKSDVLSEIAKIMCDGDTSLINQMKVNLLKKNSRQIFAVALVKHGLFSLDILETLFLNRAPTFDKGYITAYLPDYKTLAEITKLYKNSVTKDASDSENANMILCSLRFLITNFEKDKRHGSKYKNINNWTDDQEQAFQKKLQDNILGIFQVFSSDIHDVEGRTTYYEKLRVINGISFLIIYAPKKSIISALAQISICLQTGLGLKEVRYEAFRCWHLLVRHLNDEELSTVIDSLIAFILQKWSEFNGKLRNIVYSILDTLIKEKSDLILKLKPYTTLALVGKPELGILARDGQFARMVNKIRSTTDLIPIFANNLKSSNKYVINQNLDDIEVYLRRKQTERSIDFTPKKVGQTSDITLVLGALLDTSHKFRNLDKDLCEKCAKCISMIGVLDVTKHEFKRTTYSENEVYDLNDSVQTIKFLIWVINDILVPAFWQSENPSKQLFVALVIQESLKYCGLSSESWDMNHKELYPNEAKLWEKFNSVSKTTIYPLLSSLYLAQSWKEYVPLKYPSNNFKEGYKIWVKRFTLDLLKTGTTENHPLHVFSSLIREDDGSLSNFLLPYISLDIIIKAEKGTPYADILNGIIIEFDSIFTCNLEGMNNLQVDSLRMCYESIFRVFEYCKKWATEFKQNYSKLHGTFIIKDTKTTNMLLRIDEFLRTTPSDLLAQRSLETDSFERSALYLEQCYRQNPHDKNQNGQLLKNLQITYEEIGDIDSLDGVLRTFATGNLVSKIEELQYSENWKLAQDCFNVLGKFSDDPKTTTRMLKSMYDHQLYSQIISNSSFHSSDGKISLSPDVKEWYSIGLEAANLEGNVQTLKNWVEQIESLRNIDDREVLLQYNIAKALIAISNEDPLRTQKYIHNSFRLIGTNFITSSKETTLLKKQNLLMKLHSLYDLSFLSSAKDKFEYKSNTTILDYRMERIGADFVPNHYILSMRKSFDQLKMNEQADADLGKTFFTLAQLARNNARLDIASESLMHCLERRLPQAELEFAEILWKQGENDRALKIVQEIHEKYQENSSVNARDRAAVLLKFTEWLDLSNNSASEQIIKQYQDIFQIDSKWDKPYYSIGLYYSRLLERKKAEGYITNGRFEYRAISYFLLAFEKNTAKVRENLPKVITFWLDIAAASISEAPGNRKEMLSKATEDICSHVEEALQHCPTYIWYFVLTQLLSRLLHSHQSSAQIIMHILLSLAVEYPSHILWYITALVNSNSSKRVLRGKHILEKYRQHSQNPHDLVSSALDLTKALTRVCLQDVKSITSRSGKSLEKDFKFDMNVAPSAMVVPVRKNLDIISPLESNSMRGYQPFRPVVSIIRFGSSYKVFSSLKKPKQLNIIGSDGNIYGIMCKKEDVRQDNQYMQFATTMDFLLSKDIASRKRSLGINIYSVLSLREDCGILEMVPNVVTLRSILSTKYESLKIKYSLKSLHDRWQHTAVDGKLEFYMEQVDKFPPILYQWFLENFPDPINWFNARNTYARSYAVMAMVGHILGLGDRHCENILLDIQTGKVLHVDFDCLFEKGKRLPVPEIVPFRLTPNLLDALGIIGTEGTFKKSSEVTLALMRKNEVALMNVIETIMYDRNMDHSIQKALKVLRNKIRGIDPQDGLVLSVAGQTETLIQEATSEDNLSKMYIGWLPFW
Assay: SEC; Mec1·Ddc2 on Superose 6 HR 10/30, 0.3 ml/min; 50 mM HEPES-KOH pH 7.4, 200 mM KCl, 10% glycerol, 0.1% Tween 20, 0.01% Nonidet P-40, 1 mM EDTA, 1 mM EGTA, 2 mM DTT; size against Bio-Rad gel filtration standards; peak fractions on SDS-PAGE
Details: both partners purified

B1: Ddc2 (natural protein, yeast (budding yeast), UniProt Q04377 1-747, looked up)
chain: MRRETVGEFSSDDDDDILLELGTRPPRFTQIPPSSAALQTQIPTTLEVTTTTLNNKQSKNDNQLVNQLNKAQGEASMLRDKINFLNIEREKEKNIQAVKVNELQVKHLQELAKLKQELQKLEDEKKFLQMEARGKSKREVITNVKPPSTTLSTNTNTITPDSSSVAIEAKPQSPQSKKRKISDNLLKKNMVPLNPNRIIPDETSLFLESILLHQIIGADLSTIEILNRLKLDYITEFKFKNFVIAKGAPIGKSIVSLLLRCKKTLTLDRFIDTLLEDIAVLIKEISVHPNESKLAVPFLVALMYQIVQFRPSATHNLALKDCFLFICDLIRIYHHVLKVPIHESNMNLHVEPQIFQYELIDYLIISYSFDLLEGILRVLQSHPKQTYMEFFDENILKSFEFVYKLALTISYKPMVNVIFSAVEVVNIITSIILNMDNSSDLKSLISGSWWRDCITRLYALLEKEIKSGDVYNENVDTTTLHMSKYHDFFGLIRNIGDNELGGLISKLIYTDRLQSVPRVISKEDIGMDSDKFTAPIIGYKMEKWLLKLKDEVLNIFENLLMIYGDDATIVNGEMLIHSSKFLSREQALMIERYVGQDSPNLDLRCHLIEHTLTIIYRLWKDHFKQLREEQIKQVESQLIMSLWRFLVCQTETVTANEREMRDHRHLVDSLHDLTIKDQASYYEDAFEDLPEYIEEELKMQLNKRTGRIMQVKYDEKFQEMARTILESKSFDLTTLEEADSLYISMGL
notes: Ddc2 (also called Lcd1 or Pie1), yeast orthologue of ATRIP; The Ddc2 subunit of m1, for the rows of two subunits; also called Lcd1; Pie1; source: yeast, overexpressed from pBL904 together with Mec1, purified as the Mec1·Ddc2 complex (IgG-Sepharose, HRV 3C cleavage)
- binding result: binds
